According to US20180112193A1, “CSF1 THERAPEUTICS” (University Court Of The University Of Edinburgh, priority 2013, published 2018):

Key:
[1] = system: Ba/F3 CS1R reporter cell line; experiment: Proliferation of Ba/F3 CS1R reporter cell line (MTT cell viability assay); assay type: cell-based, porcine; conditions: data not shown
Method: Stable Ba/F3 cells expressing porcine CSF-1R were maintained in culture with complete RPMI supplemented with either 10^4 Units/ml rh-CSF-1 or 10% IL-3 conditioned medium prior to MTT assay. 2×10^4 cells/well (Ba/F3 cells and Ba/F3 transfectants), or 5×10^4 cells/well (pig BMM) of a 96 well plate were plated in triplicate or quadruplicate and appropriate treatment (serial dilutions of rh-CSF-1 or porcine Fc CSF-1 were added to make a total volume of 100 μl per well. Cells were incubated for 48 hours at 37° C. with 5% CO2. For Ba/F3 cells, 10 μl of MTT (Sigma Aldrich M5655) stock solution (5 mg/ml) was added directly to each well to achieve a final concentration of 0.5 mg/ml and incubated at 37° C. for 3 hours prior to solubilisation overnight. For adherent mouse BMM cells, culture medium was replaced with 50 μl of 1 mg/ml MTT solution and incubated for 1 hour at 37° C. MTT solution was removed and tetrazolium salt solubilised with 100 μl of solubilisation agent (0.1M HCL, 10% Triton x-100 and isopropanol) followed by incubation at 37° C. with 5% CO2 for 10 minutes. Plates were read at 570 nm with reference wavelength of 405 nm.
Mice were injected with Fc-CSF-1 subcutaneously on each of 4 days and sacrificed on the 5th day. The mice were csf1r-EGFP (MacGreen) mice on the C57BI/6 background. […]

C57BI6 male mice [2] = experiment: Hepatic phagocytic ability after partial hepatectomy (gene analysis, bead clearance assay, ex vivo imaging); assay type: in vivo, mouse
Method: (§1) C57BI6 male mice (8-10 weeks) underwent either partial hepatectomy (⅔ resection) or paracetamol intoxication (350 mg/kg intraperitoneal following overnight fast). CSF1-Fc was administered as previous (0.75 mg/kg). Gene analysis was performed using Qiagen Quantitect Primers (MSR1 and MARCO) and related to GAPDH level for each sample. […] 0.1 mls of 5000 IU/ml heparin solution was infused to prevent blockage of the catheter. 100 μl of red fluorescent bead solution (1:5 Latex beads 1.0 μm, fluorescent red, SIGMA-ALDRICH®) was infused through the cannula (1:2 solution for assay following paracetamol injury). 20 mcl of blood was removed from the cannula every two minutes starting from 1 minute post injection for 15 minutes. Blood was immediately fixed with 300 μl FACS-Lysing solution (BD Biosceinces). After 15 minutes mice were perfused with 15 mls 0.9% saline through the IVC cannula after dividing the portal vein for outflow. Organs were then removed (Liver, spleen, lungs, kidney, brain) and imaged with a Kodak In-Vivo Multispectral FX image station (Excitation: 550 nm; Emission: 600 nm; Exposure 1 sec; f-stop 2.8). Subsequently blood samples were analysed using a LSR-Fortessa™ flow cytometer (BD Biosciences) with fluorescent beads detected on the blue channel (B695/40) by a 1 minute sample collection on low flow rate setting.

[3] = system: csf1r-EGFP (MacGreen) mice; experiment: Fc-CSF-1 injected subcutaneously into csf1r-EGFP mice on 4 days, sacrificed on the 5th day; assay type: in vivo, mouse
Method: Mice were injected with Fc-CSF-1 subcutaneously on each of 4 days and sacrificed on the 5th day. The mice were csf1r-EGFP (MacGreen) mice on the C57BI/6 background. Tissue processing and immunohistochemistry were carried out as described in (Alikhan et al Am J. Pathol. 179, 1243-1256, 2011 and Macdonald et al Blood. 116, 3955-3963, 2010). A comparison of the effect of recombinant pig CSF-1 or Fc-CSF-1 on the proliferation of mouse bone marrow cells or the Ba/F3 CS1R reporter cell line using the assay described in Gow et al Cytokine.

neonatal pigs = experiment: Fc-CSF-1 efficacy/safety treatment trial in neonatal pigs; assay type: in vivo, pig
Method: Further tests were conducted to assess Fc-CSF-1 efficacy/safety treatment trial in neonatal pigs. At the two doses tested (0.12 mg/Kg×3 and 0.5 mg/Kg×6) the Fc-CSF-1 treatment had little effect on body weight gain at any time point. […] It was noted that in the control animals, that the total blood cell count, monocyte count and granulocyte count declines in the first two weeks of life in the pig.

C57BI6 male mice [4] = experiment: Hepatic phagocytic ability after paracetamol intoxication (gene analysis, bead clearance assay, ex vivo imaging); assay type: in vivo, mouse
Method: as §1

Pig PK (plasma ELISA) = assay type: in vivo; conditions: weaner pigs; 1.2 mg/kg IV and SC
Method: Porcine CSF-1 Fc-fusion plasma levels were detected using an in-house developed conventional sandwich ELISA utilizing commercially available antibodies. Capture antibody was Abcam ab9693 (0.3 μg/mL) and detection antibody was Rabbit anti-pig IgG (Fc) biotinylated Alpha Diagnostic 90440 (1:5000 dilution). Standard protein was generated and purified in-house (lot 2/24/11 JAS). Standards were added to each plate along with the samples resulting in an 11 point standard range of 2700 ng/mL to […]. This allowed for quantitation of each sample to a standard curve on every assay plate. Assay detection was done using Pierce High Sensitivity Streptavidin-HRP (1:10,000 dilution) and TMB Microwell Peroxidase Substrate System solution (KPL).
Weaner age barrows (<14 kg) were assigned to three treatment groups receiving a single intravenous (IV) or subcutaneous (SC) dose as follows. Three pigs received 0.5 mg/kg CSF-1 non-fusion dosed SC. Two pigs received 1.2 mg/kg CSF-1:Fc fusion dosed IV. Two pigs received 1.2 mg/kg CSF-1:Fc dosed SC. One ml plasma samples were obtained via the V. jugularis in EDTA anticoagulant tubes and placed on ice until centrifuged. The plasma was transferred to sterile tubes stored at ≤−10° C. until analysis. Serial plasma samples were obtained from each animal at pre-dose and 5 minutes, 30 minutes, 1 hour, 2 hours, 4 hours, 6 hours, 8, hours, 24 hours, 48 hours, and 72 hours post-dose. CSF-1 and CSF-1:Fc fusion protein levels were quantitated in plasma using ELISA assays.

[5] = day 2 following partial hepatectomy
[6] = 1 mg/kg, whole group or segregated for male or female
[7] = 0.12 mg/Kg×3, end of the experiment
[8] = day 2 following paracetamol intoxication

B1: Fc-CSF-1: active fragment of porcine CSF-1 (SEQ ID NO:1) linked to the hinge-CH3 region of porcine IgG1a (SEQ ID NO:2) (protein, listed as Sus scrofa)
chain: SENCSHMIGDGHLKVLQQLIDSQMETSCQIAFEFVDQEQLTDPVCYLKKAFLQVQDILDETMRFRDNTPNANVIVQLQELSLRLNSCFTKDYEEQDKACVRTFYETPLQLLEKIKNVFNETKNLLKKDWNIFSKNCNNSFAKCSSQHERQPEGRGTKTKPPCPICPGCEVAGPSVFIFPPKPKDTLMISQTPEVTCVVVDVSKEHAEVQFSWYVDGVEVHTAETRPKEEQFNSTYRVVSVLPIQHQDWLKGKEFKCKVNNVDLPAPITRTISKAIGQSREPQVYTLPPPAEELSRSKVTVTCLVIGFYPPDIHVEWKSNGQPEPEGNYRTTPPQQDVDGTFFLYSKLAVDKARWDHGETFECAVMHEALHNHYTQKSISKTQGK
For B1, which “biological activity (proliferation) compared with recombinant pig CSF-1” value [1] is on record?
The value was “no difference in biological activity”.

And the “phagocytic ability of the liver, clearance of fluorescent latex microbeads from the circulation” value (C57BI6 male mice [2]; 0.75 mg/kg, following partial hepatectomy)?
The value was “dramatically enhanced”.

And the “fluorescent intensity of whole liver, ex vivo imaging” value (C57BI6 male mice [2]; 15 minutes after bead injection, following partial hepatectomy)?
Its value is “increased fluorescent intensity”.

What about the “MARCO gene expression, whole liver” value (C57BI6 male mice [2]; [5]) of the same molecule?
The value was “upregulation”.

What about the “MSR1 (macrophage scavenger receptor 1) gene expression, whole liver” value (C57BI6 male mice [2]; [5]) of the same molecule?
The value was “upregulation”.

And the “body weight, dose response curve” value ([3]; 0.1 mg/kg)?
Its value is “detectable activity”.

And the total body weight ([3]; 1 mg/kg)?
Its total body weight is “clearly increased total body weight”.

What about the total liver weight ([3]; 1 mg/kg) of the same molecule?
The total liver weight was “significantly increased”.

And the “weight of the spleen” value ([3]; 1 mg/kg)?
The value was “almost doubled”.

And the “weight of the kidney” value [3, 6]?
The value was “no effect”.

What about the “weight of the lung” value [3, 6] of the same molecule?
The value was “no effect”.

And the segmented neutrophil counts ([3]; blood)?
Its segmented neutrophil counts is “increases”.

What about the total lymphocytes ([3]; blood) of the same molecule?
The total lymphocytes was “no effect”.

And the “total blood monocyte count” value ([3]; blood, both sexes)?
The value was “elevates”.

What about the “white blood cell count” value ([3]; blood, both sexes) of the same molecule?
The value was “elevates”.

What about the “bone resorbing osteoclasts in bone” value ([3]; growth plate, zone of resorption and shaft, data not shown) of the same molecule?
The value was “increase”.

What about the “increase in abundance of macrophage-specific genes (csf1r, emr1 (F4/80))” value ([3]; liver, Affymetrix microarrays) of the same molecule?
The value was 4-8 fold.

And the “induction of classical inflammatory genes such as TNF-a, IL-6 or IL-1” value ([3]; liver, Affymetrix microarrays)?
The value was “no evidence of induction”.

What about the “cell proliferation in liver, PCNA immunostaining” value ([3]; liver, proliferating cells identified as hepatocytes) of the same molecule?
Its value is “extensive cell proliferation”.

And the “macrophage numbers in liver, F4/80 immunostaining” value ([3]; liver, vs PBS control)?
Its value is “large increase in macrophage numbers”.

What about the “numbers of macrophages in the spleen, csf1r-EGFP reporter fluorescence” value ([3]; spleen, treated vs control) of the same molecule?
The value was “greatly increased fluorescence”.

And the “macrophage numbers and F4/80 intensity in spleen, immunostaining” value ([3]; spleen, vs PBS control)?
Its value is “large increase in macrophage numbers and also intensity of F4/80”.

What about the kidney weight (neonatal pigs; [7]) of the same molecule?
The kidney weight was “did not alter”.

What about the liver weight (neonatal pigs; [7]) of the same molecule?
The liver weight was “did not alter”.

And the lung weight (neonatal pigs; [7])?
Its lung weight is “did not alter”.

And the spleen weight (neonatal pigs; [7])?
Its spleen weight is “did not alter”.

And the body weight gain (neonatal pigs; 0.12 mg/Kg×3 and 0.5 mg/Kg×6, any time point)?
Its body weight gain is “little effect”.

What about the granulocyte count (neonatal pigs; blood, vs control animals) of the same molecule?
Its granulocyte count is “increased”.

And the lymphocyte count (neonatal pigs; blood, vs control animals)?
Its lymphocyte count is “increased”.

What about the monocyte count (neonatal pigs; blood, vs control animals) of the same molecule?
Its monocyte count is “increased”.

What about the weight gain (neonatal pigs; higher dose (0.5 mg/Kg×6), data not shown) of the same molecule?
Its weight gain is “marginal decrease”.

What about the “histiocytes in the liver (pathology report)” value (neonatal pigs; liver) of the same molecule?
The value was “increased numbers”.

What about the “MARCO gene expression, whole liver” value (C57BI6 male mice [4]; [8]) of the same molecule?
The value was “upregulation”.

What about the “MSR1 (macrophage scavenger receptor 1) gene expression, whole liver” value (C57BI6 male mice [4]; [8]) of the same molecule?
The value was “upregulation”.

What about the “clearance of latex microbeads from the circulation” value (C57BI6 male mice [4]; paracetamol model) of the same molecule?
The value was “did not notice enhanced clearance”.

What about the “hepatic fluorescence, ex vivo imaging” value (C57BI6 male mice [4]; paracetamol model) of the same molecule?
Its value is “significant increase”.

What about the “plasma concentrations relative to unmodified CSF-1” value (Pig PK (plasma ELISA)) of the same molecule?
Its value is 100 fold.

And the “time plasma level remains elevated” value (Pig PK (plasma ELISA))?
The value was “up to 72 hours”.
